T1: KKT4 full-length (KKT4 2-645) (Trypanosoma brucei, UniProt Q580Y8 2-645)
T1 sequence: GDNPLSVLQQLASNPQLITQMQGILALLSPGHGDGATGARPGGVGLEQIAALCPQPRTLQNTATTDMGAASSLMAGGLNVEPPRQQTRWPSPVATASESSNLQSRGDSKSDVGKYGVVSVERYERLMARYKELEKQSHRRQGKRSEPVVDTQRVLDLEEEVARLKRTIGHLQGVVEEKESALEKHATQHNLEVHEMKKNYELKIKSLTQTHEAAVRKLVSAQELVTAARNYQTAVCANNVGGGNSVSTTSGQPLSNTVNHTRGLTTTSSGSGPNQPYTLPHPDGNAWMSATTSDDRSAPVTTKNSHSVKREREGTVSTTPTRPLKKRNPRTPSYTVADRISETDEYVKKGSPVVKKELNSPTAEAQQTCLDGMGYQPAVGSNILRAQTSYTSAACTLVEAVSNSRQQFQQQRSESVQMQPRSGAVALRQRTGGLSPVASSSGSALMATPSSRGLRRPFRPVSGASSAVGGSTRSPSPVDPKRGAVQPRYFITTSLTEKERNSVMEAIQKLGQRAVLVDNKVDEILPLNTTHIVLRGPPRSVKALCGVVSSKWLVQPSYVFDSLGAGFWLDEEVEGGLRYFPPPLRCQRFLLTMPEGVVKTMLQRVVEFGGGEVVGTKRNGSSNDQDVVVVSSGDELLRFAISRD

B1: BA3098 50-bp CIR147 DNA probe (dsDNA)
DNA 1: CAATATGTAAGGTGTTTTGGTGTAAAACACGCATTCTTGCATAACATGCA
DNA 2: TGCATGTTATGCAAGAATGCGTGTTTTACACCAAAACACCTTACATATTG

Tests used:
[1] = biological target: KKT4^2–114 (Trypanosoma brucei); assay: SEC-MALS; KKT4 2-114 at lower concentrations; 25 mM HEPES pH 7.5, 150 mM NaCl, 0.5 mM TCEP
[2] = biological target: KKT4^2–114 (Trypanosoma brucei); assay: SEC-MALS; KKT4 2-114 at higher concentrations; 25 mM HEPES pH 7.5, 150 mM NaCl, 0.5 mM TCEP
[3] = biological target: KKT4^101–352 (Trypanosoma brucei); assay: SEC-MALS; KKT4 fragments; 25 mM HEPES pH 7.5, 150 mM NaCl, 0.5 mM TCEP
[4] = biological target: Taxol-stabilised microtubules (porcine brain tubulin) (UniProt P02550); assay: microtubule co-sedimentation assay; conditions: parent: est. 0.90; read off a plot
Taxol-stabilised microtubules (porcine brain tubulin), sequence (P02550 whole entry, looked up): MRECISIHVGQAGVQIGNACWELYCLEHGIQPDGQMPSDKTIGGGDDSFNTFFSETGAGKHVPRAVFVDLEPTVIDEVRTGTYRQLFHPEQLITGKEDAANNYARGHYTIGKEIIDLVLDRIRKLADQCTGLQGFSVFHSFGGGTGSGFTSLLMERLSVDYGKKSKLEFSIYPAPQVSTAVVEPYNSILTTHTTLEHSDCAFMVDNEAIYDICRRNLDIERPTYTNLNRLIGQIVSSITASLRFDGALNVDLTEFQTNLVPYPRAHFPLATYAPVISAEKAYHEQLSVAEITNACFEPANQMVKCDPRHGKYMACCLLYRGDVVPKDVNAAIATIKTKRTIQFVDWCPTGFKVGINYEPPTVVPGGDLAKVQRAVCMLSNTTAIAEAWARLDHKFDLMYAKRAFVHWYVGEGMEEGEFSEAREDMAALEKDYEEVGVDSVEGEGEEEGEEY

[5] = biological target: Synthetic KKT8 phosphopeptide (BA_peptide_2 (DBS1831-1)) (T. brucei); assay: fluorescence polarisation; fluorescence anisotropy; KKT4 463-645 (from 170 μM, serially diluted 2:3) with 100 nM 5-FAM peptide probe; 25 mM HEPES pH 7.5, 50 mM NaCl, 0.5 mM TCEP; 30 min at room temperature
[6] = biological target: SNAP-6HIS-3FLAG-KKT4 (full-length T. brucei KKT4) (Trypanosoma brucei); assay: SEC-MALS; full-length SNAP-6HIS-3FLAG-KKT4 at higher concentrations; 25 mM HEPES pH 7.5, 340 mM NaCl, 0.5 mM TCEP; Superose 6 or Superdex 200 10/300
[7] = biological target: SNAP-6HIS-3FLAG-KKT4 (full-length T. brucei KKT4) (Trypanosoma brucei); assay: SEC-MALS; full-length SNAP-6HIS-3FLAG-KKT4 at lower concentrations; 25 mM HEPES pH 7.5, 340 mM NaCl, 0.5 mM TCEP
[8] = biological target: T1, KKT4 full-length (KKT4 2-645); assay: fluorescence anisotropy; 1 nM DNA; 25 mM HEPES pH 7.5, 50 mM NaCl, 0.5 mM TCEP, 1 nM DNA, 30 min at room temperature; conditions: protein: recombinant; tags: SNAP-6HIS-3FLAG (pBA925; from Sf9); chain copies: 2; label: 5' 6-FAM; blunt (only one strand printed; 50-bp dsDNA)

Molecule | other: fraction bound [4] | also measured
KKT4^2–114 (domain or fragment) | – | stoichiometry N [1]: 3; stoichiometry N [2]: 4
KKT4^101–352 (domain or fragment) | – | stoichiometry N [3]: 2
KKT4^115–343 (microtubule-binding domain) K115E | 0.67 | –
KKT4^115–343 (microtubule-binding domain) K132E | 0.6 | –
KKT4^115–343 (microtubule-binding domain) K136E | 0.43 | –
KKT4^115–343 (microtubule-binding domain) K144E | 0.44 | –
KKT4^115–343 (microtubule-binding domain) K154E | 0.63 | –
KKT4^115–343 (microtubule-binding domain) K166E | 0.85 | –
KKT4^115–343 (microtubule-binding domain) K179E | 0.77 | –
KKT4^115–343 (microtubule-binding domain) K198E | 0.8 | –
KKT4^115–343 (microtubule-binding domain) K199E | 0.78 | –
KKT4^115–343 (microtubule-binding domain) K204E | 0.84 | –
KKT4^115–343 (microtubule-binding domain) K206E | 0.85 | –
KKT4^115–343 (microtubule-binding domain) K218E | 0.89 | –
KKT4^115–343 (microtubule-binding domain) R123E | 0.23 | –
KKT4^115–343 (microtubule-binding domain) R126D | 0.46 | –
KKT4^115–343 (microtubule-binding domain) R130D | 0.6 | –
KKT4^115–343 (microtubule-binding domain) R140D | 0.48 | –
KKT4^115–343 (microtubule-binding domain) R141D | 0.43 | –
KKT4^115–343 (microtubule-binding domain) R145D | 0.55 | –
KKT4^115–343 (microtubule-binding domain) R164D | 0.73 | –
KKT4^115–343 (microtubule-binding domain) R167D | 0.74 | –
KKT4^115–343 (microtubule-binding domain) R217D | 0.77 | –
KKT4^115–343 (microtubule-binding domain) R230D | 0.6 | –
KKT4^463–645 (KKT4 BRCT domain) (domain or fragment) | – | Kd [5]: 30 µM
KKT4^463–645 K543A (domain or fragment) | – | fold decrease of binding affinity against wild-type KKT4 BRCT [5]: 10 fold
SNAP-6HIS-3FLAG-KKT4 (full-length T. brucei KKT4) (natural protein) | – | stoichiometry N [6]: 4; stoichiometry N [7]: 2
B1 | – | Kd [8]: 0.011 µM

From article PMC8443799, “Structural characterization of KKT4, an unconventional microtubule-binding kinetochore protein”
